According to US20160075790A1 (Bristol-Myers Squibb, published 2016):
Numbering of substitutions follows the chain as printed. Values joined by “and” are separate entries in the source; they are usually repeats but may differ in a detail not shown here. Equal entries are not always repeated.

T1: human CD40L, membrane-bound on cells (human, UniProt P29965 1-261)
T1 sequence: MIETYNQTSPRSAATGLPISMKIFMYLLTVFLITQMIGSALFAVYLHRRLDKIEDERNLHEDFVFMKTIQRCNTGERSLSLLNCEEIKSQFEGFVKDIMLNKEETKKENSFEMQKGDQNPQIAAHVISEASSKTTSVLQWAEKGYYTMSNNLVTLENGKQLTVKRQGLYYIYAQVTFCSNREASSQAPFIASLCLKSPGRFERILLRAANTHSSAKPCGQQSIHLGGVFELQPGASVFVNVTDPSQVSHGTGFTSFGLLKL

T2: human isoleucine zipper-CD40L (IZ-hCD40L) (human, UniProt P29965 113-261)
T2 sequence: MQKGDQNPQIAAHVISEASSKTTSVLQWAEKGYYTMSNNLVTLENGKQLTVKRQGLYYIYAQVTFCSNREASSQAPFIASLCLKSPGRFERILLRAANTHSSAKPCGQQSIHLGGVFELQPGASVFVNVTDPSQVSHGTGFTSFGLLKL

B1: 2h503-1 Fc (Fc fusion, not shown: a dimerising Fc or GST)
chain: DIQMTQSPSSLSASVGDRVTITCRASHHIQRYLSWYQQKPGKAPKLLILWGSQLQSGVPSRFSGSGSGTDFTLTISSLQPEDFATYYCGQWWAPPQTFGQGTKVEIKR
B2: 2h572-6 Fc (Fc fusion, not shown: a dimerising Fc or GST)
chain: EVQLLESGGGLVQPGGSLRLSCAASGFTFNWQLMGWVRQAPGKGLEWVSGIEGPGDVTYYADSVKGRFTISRDNSKNTLYLQMNSLRAEDTAVYYCVKVGKESNSDYRGQGTLVTVSS
B3: 2h572-633 Fc (Fc fusion, not shown: a dimerising Fc or GST)
chain: B2 chain with Q32E, V37A, E102D, S103A, N104K
B4: 2h572-634 Fc (Fc fusion, not shown: a dimerising Fc or GST)
chain: B2 chain with Q32E, V37A, E102D, N104R
B5: 2h116-1320-Fc (Fc fusion, not shown: a dimerising Fc or GST)
chain: DIQMTQSPSSLSAYVGDRVTITCRASQPIGPDLLWYQQKPGKAPKLLIYQTSILRSGVPSRFSGSGSETDFTLTISNLQPEDFAKYYCQQYWAFPVTFGQGTKVVIKR
B6: BMS2h-503 (other)
VL: B1 chain with Q96P
B7: BMS2h-503-1 (other)
VL: B1 chain
B8: BMS2h-503-2 (other)
VL: B1 chain with H28D
B9: BMS2h-494-4 (other)
VL: EIQMTQSPSSLSASVGDRVTMTCRASQSIDKDLEWYQQKPGKAPRLLIYSSSWLQRGVPSRFSGSGSGTDFTLTISSLRPEDFATYYCQQYFQYPPTLGQGTKVEIKR
B10: BMS2h-494-6 (other)
VL: B9 VL with E1D, S9P, M21I, R79Q, Y87H, L98F
B11: BMS2h-719-12 (other)
VH: EVQLLESGGGLVQPGGSLRLSCAASGFTFKRYEMMWVRQAPGKGLEWVSSISSDGSFTYYADSVKGRFTVSRDNSKNTLYLQMNSLRAEDTAVYYCADPFTEFDYWGQGTLVTVSS
B12: BMS2h-719-17 (other)
VH: B11 VH with M35S, V70I, F103I, L111Q
B13: BMS2h-719-13 (other)
VH: B11 VH with V70I, S75T, F103L, Q108H
B14: BMS2h-719-19 (other)
VH: B11 VH with L11W, V70I
B15: BMS2h-572-616 (other)
VH: B2 chain with N104K
B16: BMS2h-572-630 (other)
VH: B2 chain with N30K, E102D, S103A, N104K
B17: BMS2h-572-608 (other)
VH: B2 chain with Q32E, V37A
B18: BMS2h-572-619 (other)
VH: B2 chain with E102D, N104R
B19: BMS2h-572-614 (other)
VH: B2 chain with E102D, S103A, N104K
B20: BMS2h-572-610 (other)
VH: B2 chain with E102D, N104K
B21: BMS2h-572-622 (other)
VH: B2 chain with E102D, N104T
B22: BMS2h-572-623 (other)
VH: B2 chain with N104S
B23: BMS2h-572-617 (other)
VH: B2 chain with K101R, E102D, N104K
B24: BMS2h-572-604 (other)
VH: B2 chain with N30K
B25: BMS2h-572-631 (other)
VH: B2 chain with N30K, E102D, N104R
B26: BMS2h-492-3 (other)
VL: DIQMTQSPSSLSATVGDRVTITCRASQAIETNLEWYQQKPGKAPKLLIYDASMLQSGVPSRFSGSGSGTDFTLTISSLQPEDFATYYCQQYDAYPPTFGQGTKVEIKR
B27: BMS2h-492-4 (other)
VL: B26 VL with T14S, T31H, S65R
B28: BMS2h-437-4 (other)
VL: DIQMTQSPSSLSASVGDRVTITCRASTPIGTMLDWYQQKPGKAPKLLIGHSSWLQSGVPSRFSGCGSGTDFTLTISSLQPEDFATYYCGQHVRPPATFGQGTKVEIKR
B29: BMS2h-116-1319 (other)
VL: B5 chain with Y14S, L54M, K85T, A93T, V105E
B30: BMS2h-116-1320 (other)
VL: B5 chain
B31: BMS2h-116-1314 (other)
VL: B5 chain with Y14S, Q37R, K85T

Biological target: human isoleucine zipper-CD40L (IZ-hCD40L) (human) (UniProt P29965)
Assay: cell-based or functional assay

hIZCD40L-driven Human B Cell Proliferation EC50 [nM] | Binder
4 | B1
0.6 | B2
3.5 | B3
3 | B4
13 | B5

Biological target: T1, human CD40L, membrane-bound on cells
Assay: cell-based or functional assay

CHO-hCD40L-driven DC Activation IL-12 EC50 [nM] | CHO-hCD40L-driven Human B Cell Proliferation EC50 [nM] | T-B cell MLR EC50 [nM] | T-B cell MLR IL-6 EC50 [nM] | Binder
2.8 | 60 | 45 |  | B1
0.22 | 3 | 1.9 |  | B2
0.34 | 3 | 0.15 | 0.11 | B3
0.42 | 3.5 | 0.23 | 0.19 | B4
14 | > 130 | 244 |  | B5

Biological target: T2, human isoleucine zipper-CD40L …
Assay: cell-based or functional assay

hIZCD40L-driven Human B Cell Proliferation EC50 | Binder
4200 nM | B6
24 nM | B7
44 nM | B8
590 nM | B9
2000 nM | B10
358 nM | B11
132 nM | B12
50 nM | B13
138 nM | B14
204 nM and 340 nM | B15
103 nM | B16
96 nM | B17
90 nM | B18
93 nM | B19
109 nM | B20
301 nM and 293 nM | B21
181 nM and 261 nM | B22
157 nM and 189 nM | B23
254 nM and 354 nM | B24
108 nM | B25
1100 nM | B26
1700 nM | B27
203 nM | B28
180 nM | B29
20 nM | B30
41 nM | B31

Biological target: T1, human CD40L, membrane-bound on cells
Assay: cell-based or functional assay
Remark: another data set of the same source

CHO-hCD40L-driven Human B Cell Proliferation EC50 | CHO-hCD40L-driven DC Activation IL-12 EC50 [nM] | T-B cell MLR EC50 [nM] | Binder
> 7000 nM |  |  | B6
2300 nM | 756 |  | B7
3000 nM | 1560 |  | B8
> 7000 nM |  |  | B9
> 7000 nM |  |  | B10
 | 266 |  | B11
236 nM and 268 nM | 113 |  | B12
 | 219 |  | B13
 | 184 |  | B14
 | 608 | > 7000 | B15
 | 246 |  | B16
 | 152 | > 7000 | B17
 | 188 | > 7000 | B18
 | 135 | > 7000 | B19
 | 207 | > 7000 | B20
 | 281 | > 7000 | B21
 | 280 | > 7000 | B22
 | 338 | > 7000 | B23
> 700 nM | 387 |  | B24
 | 230 |  | B25
> 7000 nM |  |  | B26
> 7000 nM |  |  | B27
> 7000 nM | 1330 |  | B28
> 7000 nM |  |  | B29
138 nM | 32 | 191 | B30
 | 664 | 1690 | B31
